± gives the uncertainty stated by the source.
B1: Ankyrin-3, residues 4094 to 4171; numbered along this chain, Q12955 (parent)
chain: MAIVADHLGLSWTELARELNFSVDEINQIRVENPNSLISQSFMLLKKWVTRDGKNATTDALTSVLTKINRIDIVTLLE

Variants of: B1
Assay: abundance fitness (aPCA) (normalised: wild type 0, dead -1); higher = more abundant; growth selection in yeast, the domain comes from the species named
Settings: Homo sapiens
With V74T the abundance fitness was -0.142 ± 0.099.
Variant V74F has an abundance fitness of -1.08 ± 0.37.
V74L showed an abundance fitness of -0.399 ± 0.074.
With R30M the abundance fitness was 0.111 ± 0.099.
I3K showed an abundance fitness of -0.27 ± 0.11.
With I3L the abundance fitness was -0.027 ± 0.051.
With E25A the abundance fitness was -0.457 ± 0.097.
E25D gave an abundance fitness of 0.03 ± 0.11.
For E25K, the abundance fitness was -0.808 ± 0.2.
Work on E25L yielded an abundance fitness of -0.862 ± 0.12.
A60W showed an abundance fitness of -0.458 ± 0.073.
Variant P34F has an abundance fitness of -0.479 ± 0.18.
P34T showed an abundance fitness of -0.366 ± 0.078.
With E14W the abundance fitness was -0.469 ± 0.14.
For L37P, the abundance fitness was -0.089 ± 0.056.
In the case of L37G, the abundance fitness is reported as -0.413 ± 0.068.
For L77W, the abundance fitness was -0.518 ± 0.077.
A5K showed an abundance fitness of -0.648 ± 0.18.
A5T showed an abundance fitness of -0.774 ± 0.18.
Variant K54W has an abundance fitness of -0.21 ± 0.07.
Work on K54M yielded an abundance fitness of -0.1 ± 0.073.
K54D showed an abundance fitness of -0.233 ± 0.15.
K54P gave an abundance fitness of -0.107 ± 0.076.
Variant K47S has an abundance fitness of -0.068 ± 0.062.
In the case of K47V, the abundance fitness is reported as -0.487 ± 0.079.
In the case of K47W, the abundance fitness is reported as -0.124 ± 0.058.
Variant K47H has an abundance fitness of -0.11 ± 0.31.
L8P gave an abundance fitness of -1 ± 0.19.
With L8Y the abundance fitness was -0.63 ± 0.3.
In the case of L8R, the abundance fitness is reported as -0.829 ± 0.11.
With L8A the abundance fitness was -1.07 ± 0.23.
I26M gave an abundance fitness of -0.544 ± 0.14.
Variant I26D has an abundance fitness of -0.886 ± 0.16.
In the case of I26T, the abundance fitness is reported as -0.755 ± 0.27.
Work on K67Q yielded an abundance fitness of -0.056 ± 0.12.
Variant L61T has an abundance fitness of -1.05 ± 0.25.
Variant L61P has an abundance fitness of -0.921 ± 0.15.
Work on T50V yielded an abundance fitness of -0.036 ± 0.051.
Work on T50L yielded an abundance fitness of 0.041 ± 0.044.
For T50R, the abundance fitness was -0.094 ± 0.058.
Work on T50D yielded an abundance fitness of 0.089 ± 0.045.
V49S gave an abundance fitness of -0.034 ± 0.065.
In the case of S36H, the abundance fitness is reported as -0.295 ± 0.15.
S36P showed an abundance fitness of -0.878 ± 0.12.
Variant A2G has an abundance fitness of 0.14 ± 0.051.
A2L gave an abundance fitness of -0.126 ± 0.067.
In the case of A2W, the abundance fitness is reported as 0.169 ± 0.077.
D59H showed an abundance fitness of -0.058 ± 0.15.
With D59Y the abundance fitness was -0.253 ± 0.15.
For D59G, the abundance fitness was -0.011 ± 0.056.
D59C gave an abundance fitness of -0.036 ± 0.17.
T58M gave an abundance fitness of 0.173 ± 0.14.
T58V gave an abundance fitness of 0.05 ± 0.059.
With T58R the abundance fitness was -0.067 ± 0.051.
With M43I the abundance fitness was -0.431 ± 0.17.
In the case of M43P, the abundance fitness is reported as -0.892 ± 0.14.
With L15E the abundance fitness was -0.766 ± 0.18.
With I68A the abundance fitness was -0.868 ± 0.13.
Variant I68T has an abundance fitness of -0.987 ± 0.31.
In the case of I68R, the abundance fitness is reported as -0.965 ± 0.12.
T57N showed an abundance fitness of 0.079 ± 0.12.
T57E showed an abundance fitness of -0.859 ± 0.17.
T57F showed an abundance fitness of -0.39 ± 0.13.
With S11W the abundance fitness was -1.05 ± 0.25.
Work on S11F yielded an abundance fitness of -0.654 ± 0.19.
S11E gave an abundance fitness of -0.326 ± 0.066.
T75S gave an abundance fitness of -0.004 ± 0.056.
Work on T75D yielded an abundance fitness of -0.155 ± 0.13.
I38R gave an abundance fitness of 0.089 ± 0.044.
For I38V, the abundance fitness was 0.027 ± 0.068.
Work on R51Q yielded an abundance fitness of -0.994 ± 0.21.
R51I showed an abundance fitness of -0.616 ± 0.35.
In the case of R51M, the abundance fitness is reported as -0.682 ± 0.18.
R51P gave an abundance fitness of -0.77 ± 0.11.
With R70W the abundance fitness was -0.795 ± 0.11.
R70G showed an abundance fitness of -1 ± 0.14.
With L45C the abundance fitness was -0.444 ± 0.11.
Work on L44H yielded an abundance fitness of -0.75 ± 0.33.
In the case of L44W, the abundance fitness is reported as -0.806 ± 0.07.
Work on L44I yielded an abundance fitness of -0.371 ± 0.18.
L44S gave an abundance fitness of -0.914 ± 0.13.
V23E gave an abundance fitness of -0.04 ± 0.1.
Work on H7C yielded an abundance fitness of -0.637 ± 0.13.
Work on E32M yielded an abundance fitness of -0.106 ± 0.077.
In the case of E32W, the abundance fitness is reported as -0.839 ± 0.19.
N35Q gave an abundance fitness of -0.077 ± 0.066.
Variant N35W has an abundance fitness of -0.487 ± 0.14.
Variant N35K has an abundance fitness of -0.329 ± 0.12.
With N35R the abundance fitness was -0.128 ± 0.047.
Work on G53F yielded an abundance fitness of -0.728 ± 0.14.
G53D showed an abundance fitness of -0.578 ± 0.13.
With G53R the abundance fitness was -0.367 ± 0.057.
For R17F, the abundance fitness was -0.108 ± 0.15.
R17K showed an abundance fitness of 0.143 ± 0.083.
Variant R17L has an abundance fitness of -0.06 ± 0.051.
With R17Q the abundance fitness was -0.273 ± 0.12.
Variant R17Y has an abundance fitness of -0.061 ± 0.092.
For R17E, the abundance fitness was -0.074 ± 0.1.
With R17M the abundance fitness was -0.053 ± 0.099.
N27V showed an abundance fitness of -0.373 ± 0.065.
Work on N27C yielded an abundance fitness of -0.238 ± 0.099.
N27R showed an abundance fitness of -0.11 ± 0.044.
Work on T62F yielded an abundance fitness of -0.175 ± 0.099.
In the case of T62W, the abundance fitness is reported as -0.434 ± 0.091.
For T62A, the abundance fitness was 0.039 ± 0.069.
T62E showed an abundance fitness of -0.297 ± 0.098.
I29A showed an abundance fitness of -0.768 ± 0.11.
Variant I29S has an abundance fitness of -0.846 ± 0.11.
I29R gave an abundance fitness of -0.857 ± 0.16.
With I29W the abundance fitness was -0.979 ± 0.17.
V4R gave an abundance fitness of -0.925 ± 0.11.
With S63T the abundance fitness was 0.023 ± 0.066.
Variant K46W has an abundance fitness of -0.541 ± 0.13.
N55G showed an abundance fitness of 0.057 ± 0.038.
For N55Y, the abundance fitness was -0.041 ± 0.15.
N55R gave an abundance fitness of -0.073 ± 0.042.
Work on T13I yielded an abundance fitness of -0.02 ± 0.1.
With A16V the abundance fitness was -0.531 ± 0.1.
With A16T the abundance fitness was -0.841 ± 0.21.
For V31F, the abundance fitness was -0.086 ± 0.11.
V31C gave an abundance fitness of 0.049 ± 0.19.
With V31Y the abundance fitness was 0.057 ± 0.24.
Variant Q40T has an abundance fitness of -0.725 ± 0.13.
Q40A gave an abundance fitness of -0.064 ± 0.056.
For Q40F, the abundance fitness was -0.74 ± 0.41.
With V64H the abundance fitness was 0.132 ± 0.12.
In the case of V64Q, the abundance fitness is reported as 0.064 ± 0.17.
Work on V64M yielded an abundance fitness of 0.064 ± 0.28.
Variant S41C has an abundance fitness of -0.538 ± 0.12.
For S41A, the abundance fitness was 0.032 ± 0.061.
With F42S the abundance fitness was 0.174 ± 0.056.
With L10C the abundance fitness was -0.016 ± 0.089.
With L10Y the abundance fitness was -0.104 ± 0.2.
With L76N the abundance fitness was -0.292 ± 0.31.
Variant L76Q has an abundance fitness of 0.028 ± 0.085.
L76C showed an abundance fitness of -0.045 ± 0.096.
For E18S, the abundance fitness was -0.625 ± 0.095.
With E18T the abundance fitness was -0.427 ± 0.17.
Variant N69V has an abundance fitness of -0.928 ± 0.14.
In the case of T66K, the abundance fitness is reported as -0.1 ± 0.12.
For A56H, the abundance fitness was -0.296 ± 0.18.
With A56T the abundance fitness was -0.517 ± 0.11.
Variant M1Y has an abundance fitness of 0.23 ± 0.45.
Work on M1N yielded an abundance fitness of -0.099 ± 0.28.
L19W showed an abundance fitness of -0.494 ± 0.078.
L19Q gave an abundance fitness of -0.781 ± 0.22.
In the case of Q28H, the abundance fitness is reported as -0.202 ± 0.12.
Q28V gave an abundance fitness of -0.399 ± 0.073.
For S39D, the abundance fitness was -0.013 ± 0.2.
Work on S39R yielded an abundance fitness of 0.001 ± 0.034.
In the case of S39W, the abundance fitness is reported as -0.47 ± 0.094.
In the case of G9Y, the abundance fitness is reported as -0.924 ± 0.39.
With G9W the abundance fitness was -0.786 ± 0.17.
With G9D the abundance fitness was -0.503 ± 0.17.
I73Y showed an abundance fitness of -0.938 ± 0.39.
W12P gave an abundance fitness of -0.433 ± 0.11.
W12S gave an abundance fitness of -0.968 ± 0.15.
For N20L, the abundance fitness was -0.191 ± 0.055.
With N20Y the abundance fitness was -0.348 ± 0.12.
Work on N20H yielded an abundance fitness of -0.035 ± 0.099.
For D72L, the abundance fitness was -0.718 ± 0.11.
Work on D72C yielded an abundance fitness of -0.958 ± 0.38.
L65M showed an abundance fitness of -0.651 ± 0.12.
Variant L65F has an abundance fitness of -0.752 ± 0.29.
L65R showed an abundance fitness of -0.902 ± 0.07.
Variant L65E has an abundance fitness of -0.824 ± 0.15.
With D6R the abundance fitness was -0.163 ± 0.048.
